According to US6340743:

Molecular target: Rabbit polymeric immunoglobulin receptor (pIgR), intact, expressed in transfected MDCK cells (pWe) (rabbit) (UniProt P01832)
Experiment: cell-based or functional assay

UniProt P01832, sequence (P01832 19-773): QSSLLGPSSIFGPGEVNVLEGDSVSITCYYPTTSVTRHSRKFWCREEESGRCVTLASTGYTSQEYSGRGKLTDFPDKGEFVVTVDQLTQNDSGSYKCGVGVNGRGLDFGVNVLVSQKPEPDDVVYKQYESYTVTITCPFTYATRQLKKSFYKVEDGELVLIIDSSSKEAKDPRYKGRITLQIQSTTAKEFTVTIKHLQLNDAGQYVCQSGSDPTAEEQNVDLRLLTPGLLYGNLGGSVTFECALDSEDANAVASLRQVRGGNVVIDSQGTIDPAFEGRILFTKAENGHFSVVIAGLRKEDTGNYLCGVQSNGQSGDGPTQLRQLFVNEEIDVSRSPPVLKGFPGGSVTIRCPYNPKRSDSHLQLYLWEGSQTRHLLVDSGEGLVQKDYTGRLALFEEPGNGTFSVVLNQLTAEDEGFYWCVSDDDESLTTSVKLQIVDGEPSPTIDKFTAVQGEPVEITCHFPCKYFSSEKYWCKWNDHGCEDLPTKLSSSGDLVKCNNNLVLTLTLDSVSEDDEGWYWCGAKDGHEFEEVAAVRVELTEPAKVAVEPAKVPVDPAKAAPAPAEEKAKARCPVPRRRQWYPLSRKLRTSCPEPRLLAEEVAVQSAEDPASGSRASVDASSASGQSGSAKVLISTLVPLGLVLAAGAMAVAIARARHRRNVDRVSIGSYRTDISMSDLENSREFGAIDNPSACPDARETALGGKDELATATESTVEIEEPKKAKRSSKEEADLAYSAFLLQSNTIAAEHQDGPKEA

Radio-iodinated IgA (antibody)
percent of ligand transcytosed from the apical to the basolateral surface: 5 to 6%
